Article doi:10.1101/426874v1

Substrate: O=C(O)C(=O)O
Test: purified protein
Settings: typical values given as a range; decarboxylase activity; Mn enzyme

B1: Oxalate Decarboxylase (OxDC), WT, His6-tagged (Bacillus subtilis subsp. subtilis str. 168) (protein)
chain: MKKQNDIPQPIRGDKGATVKIPRNIERDRQNPDMLVPPETDHGTVSNMKFSFSDTHNRLEKGGYAREVTVRELPISENLASVNMRLKPGAIRELHWHKEAEWAYMIYGSARVTIVDEKGRSFIDDVGEGDLWYFPSGLPHSIQALEEGAEFLLVFDDGSFSENSTFQLTDWLAHTPKEVIAANFGVTKEEISNLPGKEKYIFENQLPGSLKDDIVEGPNGEVPYPFTYRLLEQEPIESEGGKVYIADSTNFKVSKTIASALVTVEPGAMRELHWHPNTHEWQYYISGKARMTVFASDGHARTFNYQAGDVGYVPFAMGHYVENIGDEPLVFLEIFKDDHYADVSLNQWLAMLPETFVQAHLDLGKDFTDVLSKEKHPVVKKKCSK
For B1, the kcat was 50 − 60 s^-1.
